Measurements published in article PMC7150476.

Biological target: STAT3 (UniProt P40763)
Assay: co-immunoprecipitation, Flag/Myc tags, Western blot
Conditions: reference: wild-type PLSCR1-2Flag; sites Y69,Y74

binding against the reference: weaker
Substance: PLSCR1 (from UniProt O15162) PLSCR1-Y69,74F-2Flag
